Drawing on the Human Domainome abundance scans (Beltran et al. 2025), this text covers abundance fitness for 58 variants.

± gives the uncertainty stated by the source.

B1: Formin-binding protein 4, residues 593 to 636; numbered along this chain, Q8N3X1 (parent)
chain: EINATPKGWSCHWDRDHRRYFYVNEQSGESQWEFPDGEEEEEES

In the data set the parent is B1. Briefly: abundance fitness (aPCA) (normalised: wild type 0, dead -1); higher = more abundant; growth selection in yeast, the domain comes from the species named. Particulars: Homo sapiens.
On to EINATPKGWSCHWDRDHRRYFYVNEQSGESQWEFPDREEEEEES [G37R], for which the abundance fitness is -0.222 ± 0.068. Take EINATPKGWSCHWDRDHRRYFYVNEQSGESQWEFPDEEEEEEES [G37E]: the abundance fitness was -0.095 ± 0.084. With EINATPKGWSCHWDRDHRRYFYVNEQSGESQWEFPDDEEEEEES [G37D] the figure was -0.266 ± 0.18; with EINATPKGWSCHWDRDHRRYFYVNEQSGESQWEFPDPEEEEEES [G37P], -0.034 ± 0.097. As for EINATPKGWSCHWDRDHRRYFYVNEQSGESQWEFPDLEEEEEES [G37L], the figure is -0.151 ± 0.071; as for EINATPKGWSCHWDRDHRRYFYVNEQSGESQWEFPDAEEEEEES [G37A], -0.032 ± 0.067; as for EINATPKGWSCHWDRDHRRYFYVNEQSGESQWEFPDSEEEEEES [G37S], -0.112 ± 0.07.

As for EINATPKGWSCHWDRDHRRYFYVNEQSGESQWEFPDVEEEEEES [G37V], the abundance fitness was -0.007 ± 0.068.

Regarding EINATPKGWSCHWDRDHRRYFYVNEQSGESQWEFPDIEEEEEES [G37I], the abundance fitness was -0.232 ± 0.14. In the case of EINATPKGWSCHWDRDHRRYFYVNEQSGESQWEFPDWEEEEEES [G37W], the abundance fitness is -0.154 ± 0.072.

On to EINATPKGWSCHWDRDHRRYFYVNEQSGESQWEFPDMEEEEEES [G37M], for which the abundance fitness was -0.216 ± 0.13. In the case of EINATPKGWSCHWDRDHRRYFYVNEQSGESQWEFPDTEEEEEES [G37T], the abundance fitness was -0.026 ± 0.081. On to EINATPKGWSCHWDRDHRRYFYVNEQSGESQWEFPDCEEEEEES [G37C], for which the abundance fitness is -0.088 ± 0.086. As for EINATPKGWSCHWDRDHRRYFYVNEQSGESQWEFPDQEEEEEES [G37Q], the figure is -0.089 ± 0.094. On to EINATPKGWSCHWDRDHRRYFYVNEQSGESQWEFPDHEEEEEES [G37H], for which the abundance fitness is -0.021 ± 0.12. As for EINATPKGWSCHWDRDHRRYFYVNEQSGESQSEFPDGEEEEEES [W32S], the figure is -0.23 ± 0.066; as for EINATPKGWSCHWDRDHRRYFYVNEQSGESQVEFPDGEEEEEES [W32V], -0.093 ± 0.091; as for EINATPKGWSCHWDRDHRRYFYVNEQSGESQMEFPDGEEEEEES [W32M], -0.243 ± 0.098. With EINATPKGWSCHWDRDHRRYFYVNEQSGESQKEFPDGEEEEEES [W32K] the figure was -0.246 ± 0.079; with EINATPKGWSCHWDRDHRRYFYVNEQSGESQREFPDGEEEEEES [W32R], -0.324 ± 0.064. With EINATPKGWSCHWDRDHRRYFYVNEQSGESQYEFPDGEEEEEES [W32Y] the figure was -0.169 ± 0.12; with EINATPKGWSCHWDRDHRRYFYVNEQSGESQLEFPDGEEEEEES [W32L], -0.002 ± 0.07; with EINATPKGWSCHWDRDHRRYFYVNEQSGESQWEFPDGEDEEEES [E39D], -0.128 ± 0.14. Turning to EINATPKGWSCHWDRDHRRYFYVNEQSGESQWEFPDGEMEEEES [E39M], the abundance fitness was -0.109 ± 0.083. As for EINATPKGWSCHWDRDHRRYFYVNEQSGESQWEFPDGEPEEEES [E39P], the figure is 0.041 ± 0.069; as for EINATPKGWSCHWDRDHRRYFYVNEQSGESQWEFPDGEIEEEES [E39I], -0.074 ± 0.2. Consider EINATPKGWSCHWDRDHRRYFYVNEQSGESQWEFPDGEKEEEES [E39K], for which the abundance fitness stood at 0.048 ± 0.075.

EINATPKGWSCHWDRDHRRYFYVNEQSGESQWEFPDGEGEEEES [E39G]: the abundance fitness was -0.057 ± 0.063. As for EINATPKGWSCHWDRDHRRYFYVNEQSGESQWEFPDGENEEEES [E39N], the abundance fitness turned out to be 0.052 ± 0.096. As to EINATPKGWSCHWDRDHRRYFYVNEQSGESQWEFPDGECEEEES [E39C], the abundance fitness stood at 0.048 ± 0.1. As for EINATPKGWSCHWDRDHRRYFYVNEQSGESQWEFPDGELEEEES [E39L], the figure is 0.075 ± 0.067; as for EINATPKGWSCHWDRDHRRYFYVNEQSGESQWEFPDGEFEEEES [E39F], -0.155 ± 0.11; as for EINATPKGWSCHWDRDHRRYFYVNEQSGESQWEVPDGEEEEEES [F34V], -0.044 ± 0.07. Turning to EINATPKGWSCHWDRDHRRYFYVNEQSGESQWERPDGEEEEEES [F34R], the abundance fitness came to 0.081 ± 0.057. With EINATPKGWSCHWDRDHRRYFYVNEQSGESQWETPDGEEEEEES [F34T] the figure was 0.013 ± 0.09; with EINATPKGWSCHWDRDHRRYFYVNEQSGESQWEHPDGEEEEEES [F34H], -0.011 ± 0.11. Take EINATPKGWSCHWDRDHRRYFYVNEQSGESQWECPDGEEEEEES [F34C]: the abundance fitness was -0.035 ± 0.096. For the variant EINATPKGWSCHWDRDHRRYFYVNEQSGESQWELPDGEEEEEES [F34L], the abundance fitness is 0.015 ± 0.061. As for EINATPKGWSCHWDRDHRRYFYVNEQSGESQWEAPDGEEEEEES [F34A], the abundance fitness was -0.059 ± 0.072. With EINATPKGWSCHWDRDHRRYFYVNEQSGESQWEMPDGEEEEEES [F34M] the figure was -0.07 ± 0.096; with EINATPKGWSCHWDRDHRRYFYVNEQSGESQWEWPDGEEEEEES [F34W], -0.13 ± 0.07; with EINATPKGWSCHWDRDHRRYFYVNEQSGESQWEEPDGEEEEEES [F34E], -0.074 ± 0.088.

Regarding EINATPKGWSCHWDRDHRRYFYVNEQSGESQWEGPDGEEEEEES [F34G], the abundance fitness is -0.392 ± 0.065. As for EINATPKGWSCHWDRDHRRYFYVNEQSGESQWEYPDGEEEEEES [F34Y], the figure is -0.084 ± 0.12. As for EINATPKGWSCHWDRDHRRYFYVNEQSGESQWEPPDGEEEEEES [F34P], the figure is 0.071 ± 0.076. With EINATPKGWSCHWDRDHRRYFYVNEQSGESQWENPDGEEEEEES [F34N], the abundance fitness is -0.635 ± 0.13. On to EINATPKGWSCHWDRDHRRYFYVNEQSGESQWEDPDGEEEEEES [F34D], for which the abundance fitness is -0.222 ± 0.1. With EINATPKGWSCHWDRDHRRYFYVNEQSGESQWESPDGEEEEEES [F34S] the figure was -0.282 ± 0.087. Regarding EINATPKGWSCHWDRDHRRYFYVNEQSGESQWEQPDGEEEEEES [F34Q], the abundance fitness stood at 0.015 ± 0.089. EINATPKGWSCHWDRDHRRYFYVNEQSGESQWEKPDGEEEEEES [F34K]: the abundance fitness is 0.222 ± 0.095. Consider EINATPKGWSCHWDRDHRRYFYVNEQSGESQWEFPDGPEEEEES [E38P], for which the abundance fitness was found to be 0.056 ± 0.07. As for EINATPKGWSCHWDRDHRRYFYVNEQSGESQWEFPDGSEEEEES [E38S], the figure is 0.045 ± 0.07; as for EINATPKGWSCHWDRDHRRYFYVNEQSGESQWEFPDGTEEEEES [E38T], -0.014 ± 0.066. With EINATPKGWSCHWDRDHRRYFYVNEQSGESQWEFPDGWEEEEES [E38W], the abundance fitness is -0.314 ± 0.13. With EINATPKGWSCHWDRDHRRYFYVNEQSGESQWEFPDGYEEEEES [E38Y] the figure was -0.316 ± 0.39; with EINATPKGWSCHWDRDHRRYFYVNEQSGESQWEFPDGMEEEEES [E38M], 0.058 ± 0.087. On to EINATPKGWSCHWDRDHRRYFYVNEQSGESQWEFPDGREEEEES [E38R], for which the abundance fitness was -0.023 ± 0.059. With EINATPKGWSCHWDRDHRRYFYVNEQSGESQWEFPDGVEEEEES [E38V] the figure was 0.008 ± 0.084.
